The nature of the series: protein stability index of a GFP-peptide fusion (GPS, HEK-293T) (PSI 1-6); higher = more stable.
The mark [1] stands for this setting: treatment: DMSO, c terminus: a fixed tail appended.
The mark [2] stands for this setting: treatment: MLN4924 1 uM, 8 h, c terminus: a fixed tail appended.

± gives the standard deviation.
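Note: 24-mer peptide tiles fused after GFP, lentivirally expressed, FACS-sorted into six equal bins by GFP/DsRed ratio, decoded by Illumina sequencing, PSI is the read-weighted mean bin number.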

Regarding QLATSSFLLFLLTGIVSVAFLLLP [MOSPD3], the protein stability index was 3.5 ± 0.19 under setting [1] and 2.88 ± 0.54 under setting [2].

Turning to QDPEGKGEQEHSQQKEEEEEMAVV [CHGA], the protein stability index is, setting by setting: under setting [1], 5.43 ± 0.34; under setting [2], 5.69 ± 0.13.

Consider VSSQRFKSSVYRRYNDFVVFQEML [SNX8], for which the protein stability index came to 2.1 ± 0.21 under setting [1] and 2.21 ± 0.39 under setting [2].

With ATIVFATDFYLIFNDVAKFLKQGD [CMTM3], the protein stability index under setting [1] turned out to be 2.9 ± 0.91 and the protein stability index under setting [2] turned out to be 2.77 ± 0.43.

For QRLIVGNSALKDKEDQFGRTPLMY [INVS], the protein stability index reads like this: under setting [1], 3.05 ± 0.31; under setting [2], 3.31 ± 0.35.

Sequence PDDVDYATNPHVKPPYSYATLICM [FOXJ1] had a protein stability index under setting [1] of 2.22 ± 0.28 and a protein stability index under setting [2] of 2.2 ± 0.28.

On to EREMAEIRDQMQQQLNDYEQLLDV [LMNB1], for which the protein stability index is, setting by setting: under setting [1], 5.15 ± 0.17; under setting [2], 5.09 ± 0.19.

For AGEEDPSGMVTIITGLPLDNPSVL [SMG5], the protein stability index reads like this: under setting [1], 3.7 ± 0.18; under setting [2], 3.75 ± 0.19.

With SVLNGKFANLIKEFVIIDCRYPYE [CDC25A], the protein stability index was 2.63 ± 0.36 under setting [1] and 2.55 ± 1 under setting [2].

Turning to GSDTGASLKLASSELERLIVPNSN [JUNB], the protein stability index was found to be 4.31 ± 0.057 under setting [1] and 4.15 ± 0.17 under setting [2].

Take EIPTGKKDHECSECGKTFIYNSHL [ZNF232]: the protein stability index reads like this: under setting [1], 3.7 ± 0.21; under setting [2], 3.49 ± 0.28.

Turning to SLQNSLECAMETTEEQTRQERQGP [NECAB1], the protein stability index is, setting by setting: under setting [1], 5.09 ± 0.17; under setting [2], 5.22 ± 0.25.

As to VQRKSDFDQTVFQEVFEPPHYELC [NETO1], the protein stability index is, setting by setting: under setting [1], 3.44 ± 0.23; under setting [2], 3.62 ± 0.3.

Take AVDGILHMFTPKLDKMLDPQVWRE [SLC6A17]: the protein stability index reads like this: under setting [1], 2.27 ± 0.34; under setting [2], 2.53 ± 0.25.

Regarding MMHGLKPLSLVKRTDLKDLIIFDK [CEP70], the protein stability index reads like this: under setting [1], 2.37 ± 0.12; under setting [2], 2.92 ± 0.47.

With IREALHELLCCTNVSTKEGIHLAL [INTS4], the protein stability index is, setting by setting: under setting [1], 2.41 ± 0.46; under setting [2], 2.48 ± 0.3.

As for MEHALREKAKAFWAMRRSYEAIAK [TRIM35], the protein stability index reads like this: under setting [1], 2.46 ± 0.12; under setting [2], 2.59 ± 0.45.

For PMALLTIGSSSEKEIDDVIDEIIS [TFE3], the protein stability index came out at 2.98 ± 0.099 under setting [1] and 3.29 ± 0.095 under setting [2].

For RRQTSMTDFYHSKRRLIFSKRKP [CDKN1A], the protein stability index is, setting by setting: (treatment: DMSO, c terminus: native) 3.33 ± 0.28; (treatment: MLN4924 1 uM, 8 h, c terminus: native) 3.71 ± 0.53.

Take ETYHQQGQCQVLVQRSPWLMMRMG [TCAP]: the protein stability index is, setting by setting: under setting [1], 2.18 ± 0.22; under setting [2], 2.23 ± 0.35.

Regarding VAKCLIGVNYPKPMVNHAEASRLN [CRY1], the protein stability index by setting is: under setting [1], 2.5 ± 0.14; under setting [2], 2.46 ± 0.38.

Consider QGVCYLVLCEAAFPKKLAFAYLED [SEC22B], for which the protein stability index runs as follows: under setting [1], 3.26 ± 0.27; under setting [2], 3.05 ± 0.058.

Take SLADGGSASPIKDQPVMAVKTGED [FANCE]: the protein stability index was found to be 5.46 ± 0.23 under setting [1] and 5.6 ± 0.16 under setting [2].

In the case of KGISQTNLITTVTPEKKAEEERDE [EPB41L3], the protein stability index turned out to be 5.54 ± 0.13 under setting [1] and 5.59 ± 0.2 under setting [2].

For the sequence PDTQLLKFQLNKYTGEIKISENLD [PCDHGA10], the protein stability index by setting is: under setting [1], 3.43 ± 0.44; under setting [2], 3.66 ± 0.17.

DIEQFFNIGDSSSGLIQTVFISSY [SPNS1] yielded a protein stability index under setting [1] of 2.68 ± 0.39 and a protein stability index under setting [2] of 2.66 ± 0.8.

Take RGCGGTDIELDAARGDAVCTACGS [BRF1]: the protein stability index worked out at 4.9 ± 0.24 under setting [1] and 4.75 ± 0.26 under setting [2].

On to RALNSVPVIIAAVGTRQNEELPCT [RHOBTB3], for which the protein stability index runs as follows: under setting [1], 3.39 ± 0.24; under setting [2], 3.46 ± 0.16.

WNVLMWTSLFLGNGVLLCFYSQEW [SOAT1]: the protein stability index is, setting by setting: under setting [1], 2.99 ± 0.93; under setting [2], 2.7 ± 0.38.

For the sequence VYSCAFSPDSSMLCSVGASKAVFL [WSB1], the protein stability index runs as follows: under setting [1], 2.8 ± 0.5; under setting [2], 2.86 ± 0.49.

As for VDSHHEYPAMTFYSPAVMNYSIPS [ESR2], the protein stability index is, setting by setting: under setting [1], 2.8 ± 0.18; under setting [2], 2.89 ± 0.24.

IYRRYRQFHALQSKLEERFGPDSK [NCF4]: the protein stability index was 2.28 ± 0.23 under setting [1] and 2.61 ± 0.34 under setting [2].

As to FPDLLLTKRDSFLKRLYRAPIDWI [ALG2], the protein stability index by setting is: under setting [1], 2.27 ± 0.29; under setting [2], 2.64 ± 0.52.

As for NCGLEEKIANLGSCNDSKLEFRSF [S100A14], the protein stability index is, setting by setting: under setting [1], 2.25 ± 0.68; under setting [2], 2.82 ± 1.2.

As to FIPECNDDGTYSQVQCHSYTGYCW [SMOC2], the protein stability index is, setting by setting: under setting [1], 2.79 ± 1; under setting [2], 2.27 ± 0.45.

Consider KDESCYDNAEAAFSDDEEDLNSKG [INTS3], for which the protein stability index is 5.6 ± 0.39 under setting [1] and 5.5 ± 0.18 under setting [2].

On to LEDYINDRQYDSRGRFGELLLLLP [HNF4A], for which the protein stability index reads like this: under setting [1], 2.19 ± 0.32; under setting [2], 2.22 ± 0.2.

For PEISRIIVDPTTGKRYCRGKVLGK [PLK2], the protein stability index is, setting by setting: under setting [1], 3.9 ± 0.22; under setting [2], 4.04 ± 0.2.

Take TCSRVDYCLLSDHGCEYSCVNMDR [MATN2]: the protein stability index under setting [1] was determined as 2.84 ± 0.24 and the protein stability index under setting [2] was 2.82 ± 0.32.

For HAPKIGSNGVEMAAKFPSGSQRAR [SDE2], the protein stability index by setting is: under setting [1], 4.56 ± 0.13; under setting [2], 4.62 ± 0.19.

For SSPVTTLTQTMHDLAGLGSETPKS [CDC25B], the protein stability index reads like this: under setting [1], 4.97 ± 0.31; under setting [2], 5.13 ± 0.14.

With MHLKPYWKLQKKEHPPEVSRETQR [FBXO34], the protein stability index was 3.58 ± 0.18 under setting [1] and 3.78 ± 0.33 under setting [2].

In the case of RLENRYEALAKQVASEMRFVQDLV [DAPK3], the protein stability index stood at 2.5 ± 0.16 under setting [1] and 2.45 ± 0.25 under setting [2].

For RVPLGRLELLEEVLALGLRTDVGI [RSAD1], the protein stability index worked out at 2.1 ± 0.44 under setting [1] and 2.15 ± 0.31 under setting [2].

For the sequence GSELRDFPGRPMGHLSKDVDENDS [DLC1], the protein stability index reads like this: under setting [1], 5.63 ± 0.24; under setting [2], 5.51 ± 0.17.

Consider LETHFRDVSSTEEFLELSPQKLKE [GAN], for which the protein stability index is 5.38 ± 0.18 under setting [1] and 5.37 ± 0.084 under setting [2].

As to MTMQFISHRFPEDHDPTIEDAYKI [RIT1], the protein stability index runs as follows: under setting [1], 3.24 ± 0.15; under setting [2], 3.36 ± 0.22.

For the sequence ELDSSSSLCVLVSTVGKLCRLINE [CEP70], the protein stability index is 3.73 ± 0.53 under setting [1] and 3.6 ± 0.35 under setting [2].

For the sequence MQALEIELQSQLSMKASLEGNLAE [KRT17], the protein stability index runs as follows: under setting [1], 3.59 ± 0.19; under setting [2], 3.45 ± 0.42.

For EYQPLQIETYGPHVPELEMLGRLG [MNAT1], the protein stability index is 3.18 ± 0.28 under setting [1] and 3.76 ± 0.31 under setting [2].

With NLETNEWRYVSSLPQPLAAHAGAV [KLHL14], the protein stability index is, setting by setting: under setting [1], 2.64 ± 0.36; under setting [2], 2.87 ± 0.37.

As for FLGLGAPNCLSMGSRCLKTFEVPE [ZBED1], the protein stability index came to 2.3 ± 0.2 under setting [1] and 2.06 ± 0.28 under setting [2].

Consider ENHPDVFSDSSMDHFQKFLPTVGG [MYOZ1], for which the protein stability index was found to be 2.99 ± 0.5 under setting [1] and 3.34 ± 0.53 under setting [2].

Turning to VLVEKYGWPHEDAAQFTDFLIPML [SRPK2], the protein stability index is, setting by setting: under setting [1], 2.38 ± 0.26; under setting [2], 2.4 ± 0.26.

RPLGIRAGPNGTLFVADAYKGLFE [APMAP] yielded a protein stability index under setting [1] of 2.66 ± 0.27 and a protein stability index under setting [2] of 2.61 ± 0.44.

Sequence RDGLAEDLAALKQRLEEETRKRED [PRPH] yielded a protein stability index under setting [1] of 5.33 ± 0.33 and a protein stability index under setting [2] of 5.25 ± 0.27.

LVPKTHLMSESEWRNLGVQQSQGW [CKS1B] came in with a protein stability index under setting [1] of 2.64 ± 0.32 and a protein stability index under setting [2] of 2.86 ± 0.2.

The sequence SFWNSSHPRGWNDHVHILDTETFT [KLHDC2] gave a protein stability index under setting [1] of 2.54 ± 0.17 and a protein stability index under setting [2] of 2.39 ± 0.3.

Take CKAFSTCVSHLIIVTVHYGCASFI [OR10K2]: the protein stability index under setting [1] was 2.88 ± 0.54 and the protein stability index under setting [2] was determined as 3.01 ± 0.57.

Take DPEVFKEMMRFIYTGRAPNLDKMA [SPOPL]: the protein stability index is 2.25 ± 0.32 under setting [1] and 2.41 ± 0.26 under setting [2].

As for QLAKELGATYLELHSLDDFYIGKY [RHOBTB3], the protein stability index under setting [1] was found to be 2.56 ± 0.56 and the protein stability index under setting [2] is 2.33 ± 0.27.

Turning to WPPSFLSEFRALQFSLMLCAFVGA [SPNS1], the protein stability index was found to be 3.23 ± 0.53 under setting [1] and 2.85 ± 0.64 under setting [2].

In turn, MVHVARLLLLLLTFFLRTDAETPP [PTPRD] came in with a protein stability index under setting [1] of 2.91 ± 0.44 and a protein stability index under setting [2] of 2.95 ± 0.44.

On to LFENSLCRLTHIPAYKVSGDKNEE [ZER1], for which the protein stability index under setting [1] worked out at 4.05 ± 0.17 and the protein stability index under setting [2] worked out at 4.04 ± 0.12.

As for DILMEEEEGVVGGLSGGALSPLRA [TFE3], the protein stability index is, setting by setting: under setting [1], 4.45 ± 0.42; under setting [2], 4.11 ± 0.23.

GKETMCTVDGLHFNSTYNARVKAF [TRIM9]: the protein stability index worked out at 3.1 ± 0.37 under setting [1] and 3.08 ± 0.23 under setting [2].

Regarding KFHHSDCLSTWLLHFIATNYLIFS [RHOBTB3], the protein stability index reads like this: under setting [1], 3.21 ± 0.23; under setting [2], 3.05 ± 0.24.

Turning to QGAPASSFVYVNPEDGRIFAQRTF [PCDHGC5], the protein stability index turned out to be 2.57 ± 0.27 under setting [1] and 2.78 ± 0.35 under setting [2].

Values taken from the supplement of paper PMC10567573.
